Measured values reported in patent publication US20160355586A1 (published 2016).

What follows are binders tested against T1, CD16A (human, UniProt P08637 17-208, limits assumed) (assay: tetrameric IgG1 with hu3G8VL-1 light chain; binding to CD16A, method not named).
T1 construct: Target of the hu3G8 VH/VL variant screen of section 5.1.2; also called FcγRIIIA
T1 sequence (P08637 17-208 limits assumed): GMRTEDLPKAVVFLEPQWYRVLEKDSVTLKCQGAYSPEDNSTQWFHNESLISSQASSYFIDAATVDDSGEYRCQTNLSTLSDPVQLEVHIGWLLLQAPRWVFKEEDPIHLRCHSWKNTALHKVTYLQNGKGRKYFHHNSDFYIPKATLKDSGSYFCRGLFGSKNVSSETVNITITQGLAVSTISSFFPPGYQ

| binding result | Binder |
| --- | --- |
| binds | tetrameric antibody hu3G8VH-1 / hu3G8VL-1 (antibody, IgG1, V domains shown, VH on human Cgamma1 constant region (IgG1)) VH: QVTLRESGPALVKPTQTLTLTCTFSGFSLSTSGMGVGWIRQPPGKALEWLAHIWWDDDKRYNPALKSRLTISKDTSKNQVVLTMTNMDPVDTATYYCARINPAWFAYWGQGTLVTVSS VL: DIVMTQSPDSLAVSLGERATINCKASQSVDFDGDSFMNWYQQKPGQPPKLLIYTTSNLESGVPDRFSGSGSGTDFTLTISSLQAEDVAVYYCQQSNEDPYTFGQGTKLEIK |
| binds | tetrameric antibody hu3G8VH-22 / hu3G8VL-1 (antibody, IgG1, V domains shown, VH on human Cgamma1 (IgG1)) VH: QVTLRESGPALVKPTQTLTLTCTFSGFSLSTSGVGVGWIRQPPGKALEWLAHIWWDDDKRYSPSLKSRLTISKDTSKNQVVLTMTNMDPVDTATYYCARINPAYFAYWGQGTLVTVS VL: DIVMTQSPDSLAVSLGERATINCKASQSVDFDGDSFMNWYQQKPGQPPKLLIYTTSNLESGVPDRFSGSGSGTDFTLTISSLQAEDVAVYYCQQSNEDPYTFGQGTKLEIK |
| binds | tetrameric antibody hu3G8VH-5 / hu3G8VL-1 (antibody, IgG1, V domains shown, VH on human Cgamma1 (IgG1)) VH: QVTLRESGPALVKPTQTLTLTCTFSGFSLSTSGMGVGWIRQPPGKALEWLAHIWWDDDKRYNPALKSRLTISKDTSKNQVVLTMTNMDPVDTATYYCAQINPAWFAYWGQGTLVTVSS VL: DIVMTQSPDSLAVSLGERATINCKASQSVDFDGDSFMNWYQQKPGQPPKLLIYTTSNLESGVPDRFSGSGSGTDFTLTISSLQAEDVAVYYCQQSNEDPYTFGQGTKLEIK |
